“And” between values parts separate entries of the source, which are not always exact repeats. Equal entries are not always repeated.
Key:
[1] = tested on: spontaneously beating normal mouse hearts (endotoxin resistant C3H/HeJ); assay: Langendorff preparation, hearts perfused with rMIF (C3H/HeJ); conditions: 20 ng/ml rMIF, 1.5 ml/m
Method: Determination of cardiac function in response to rMIF. C57BL/6J and C3H/HeJ mice were used in the Langendorff assays. Briefly, 200 U heparin sulfate was given i.p., the mice sacrificed 20 m later, and the heart immediately removed and placed on ice in Krebs-Hanseleit Buffer ([…], 118 mM NaCl, 4.7 mM KCL, 1.2 mM KH2PO4, 1.2 mM MgSO4, 2.5 mM CaCl2, 11.1 mM glucose, pH 7.4, which was prepared fresh with demineralized, deionized water and bubbled with 95% O2 and 5% CO2 (PO2 590 mmHg, pCO2 38 mmHg)). The aorta was cannulated with PE50 tubing, the heart perfused in a retrograde manner through the aortic root with prefiltered, oxygenated Krebs-Hanseleit Buffer at a constant flow rate of 1.5 ml/m (T 37° C.) and a recirculating volume of 100 ml. The heart was placed in a water-jacketed chamber to maintain constant temperature and humidity. PE60 intratnedic polyethylene tubing was connected to a Statham pressure transducer inserted into the left ventricle (LV) to measure LV pressure. Temperature was monitored using a 27 G thertnistor needle inserted into the LV muscle. […] Following stabilization, LV pressure and its first derivative (dP/dt), heart rate, and coronary perfusion were measured simultaneously with a multichannel Grass 7D polygraph (Grass Instruments, Quincy, M A). Cardiac function for all hearts was determined by plotting peak systolic LV pressure and ±dP/dt,Ia, values against changes in coronary flow rate.
MIF induces systolic and diastolic cardiac dysfunction. […] Responses to MIF were determined in hearts from both C57BL/6J mice, and C3H/HeJ mice. C3H/HeJ mice are resistant to endotoxin (41-43), therefore controlling for the possibility that any depression observed might be due to trace endotoxin in the perfusate. Table 2 illustrates the responses of both mouse strains to retrograde aortic perfusion at 1.5 ml/m with control perfusate or perfusate containing 20 ng/ml recombinant MIF. Perfusion with MIF led to a significant decrease in LVP, +dP/dtmax, and −dP/dt max in both mouse strains. FIG. 4 illustrates the effect of MIF over a range of coronary flow rates. […]

CD74 KO mouse hearts = assay: Langendorff, rhMIF added to perfusate, CD74 KO mouse hearts; set-up: LVP / +dP/dt / −dP/dt / TPP / CVR: unit not given beside the values
C57BL/6 hearts = assay: Langendorff, rhMIF added to perfusate, C57BL/6 hearts; set-up: species or system mouse; LVP / TPP / RT90 / Max + d / Max − d: unit not given beside the values
[2] = CD74 K/O + rhMIF, single hearts by date and mean (x), n 3
[3] = CD74 K/O + rhMIF, single hearts by date and mean (x), n 3, mean
[4] = CD74 KO + rhMIF in perfusate, n = 3
[5] = C57BL/6 + rhMIF in perfusate, n = 3
[6] = C57BL/6 + rhMIF, single hearts by date and mean (x), n 3
[7] = C57BL/6 + rhMIF, single hearts by date and mean (x), n 3, mean

B1: rMIF: recombinant human macrophage migration inhibitory factor added to the heart perfusate at 20 ng/ml (protein, UniProt P14174 2-115, looked up)
Macrophage migration …: PMFIVNTNVPRASVPDGFLSELTQQLAQATGKPPQYIAVHVVPDQLMAFGGSSEPCALCSLHSIGKIGGAQNRSYSKLLCGLLAERLRISPDRVYINYYDMNAANVGWNNSTFA
+dP/dt max ([1]; n = 7): 1800 ± 106 mm Hg/see
−dP/dt max ([1]; n = 7): 1343 ± 138 mm Hg/sec
LVP ([1]; n = 7, mean peak): 75.2 ± 5.5 mm Hg
+dP/dt (CD74 KO mouse hearts; [2]): 1800 and 1600 and 2200
CVR (CD74 KO mouse hearts; [2]): 45 and 53 and 71
DR (CD74 KO mouse hearts; [2]): 1.286 and 1.455 and 1.222
HR (CD74 KO mouse hearts; [2]): 320 and 325
LVP (CD74 KO mouse hearts; [2]): 64 and 50 and 88
Max + d (CD74 KO mouse hearts; [2]): 45 and 50 and 40
Max − d (CD74 KO mouse hearts; [2]): 53 and 52
RT90 (CD74 KO mouse hearts; [2]): 80 and 72
TPP (CD74 KO mouse hearts; [2]): 70 and 75 and 63
dP40 (CD74 KO mouse hearts; [2]): 1900
−dP/dt (CD74 KO mouse hearts; [2]): 1400 and 1100 and 1800
+dP/dt (CD74 KO mouse hearts; [3]): 1866.667
CVR (CD74 KO mouse hearts; [3]): 56.33
DR (CD74 KO mouse hearts; [3]): 1.321
HR (CD74 KO mouse hearts; [3]): 321.6667
LVP (CD74 KO mouse hearts; [3]): 67.33
Max − d (CD74 KO mouse hearts; [3]): 52.67
RT90 (CD74 KO mouse hearts; [3]): 77.33
TPP (CD74 KO mouse hearts; [3]): 69.33
dP40 (CD74 KO mouse hearts; [3]): 1666.667
−dP/dt (CD74 KO mouse hearts; [3]): 1433.333
+dP/dt max (CD74 KO mouse hearts; [4]): 1867 ± 176 mmHg/sec
Coronay Perfusion Pressue (CD74 KO mouse hearts; [4]): 86.0 ± 23.6 mmHg
Coronay Vascular Resistance (CD74 KO mouse hearts; [4]): 56.3 ± 7.7 mmHg
Heart Rate (CD74 KO mouse hearts; [4]): 322 ± 2 bpm
Left Ventricular Pressure (CD74 KO mouse hearts; [4]): 67.3 ± 14.4 mmHg
Time to 90% Relaxation (CD74 KO mouse hearts; [4]): 77.3 ± 2.7 ms
Time to Max +dP/dt (CD74 KO mouse hearts; [4]): 45.0 ± 2.9 ms
Time to Max −dP/dt (CD74 KO mouse hearts; [4]): 52.7 ± 0.3 ms
Time to Peak Pressue (CD74 KO mouse hearts; [4]): 69.3 ± 3.5 ms
dP40 (CD74 KO mouse hearts; [4]): 1662 ± 120 mmHg/sec
−dP/dt max (CD74 KO mouse hearts; [4]): 1433 ± 202 mmHg/sec
Coronay Perfusion Pressue (C57BL/6 hearts; [5]): 86.0 ± 23 mmHg
Coronay Vascular Resistance (C57BL/6 hearts; [5]): 57.3 ± 7.7 mmHg
Heart Rate (C57BL/6 hearts; [5]): 318 ± 2 bpm
Left Ventricular Pressure (C57BL/6 hearts; [5]): 52.7 ± 6.6 mmHg
Time to 90% Relaxation (C57BL/6 hearts; [5]): 73.3 ± 4.4 ms
Time to Max +dP/dt (C57BL/6 hearts; [5]): 47.0 ± 2.1 ms
Time to Max −dP/dt (C57BL/6 hearts; [5]): 49.0 ± 1.5 ms
Time to Peak Pressue (C57BL/6 hearts; [5]): 74.0 ± 3.1 ms
dP40 (C57BL/6 hearts; [5]): 1200 ± 115 mmHg/sec
−dP/dt max (C57BL/6 hearts; [5]): 1233 ± 159 mmHg/sec
+dP/dt (C57BL/6 hearts; [6]): 1650 and 1100
DR (C57BL/6 hearts; [6]): 1.1 and 1.158 and 1.2
HR (C57BL/6 hearts; [6]): 320 and 315
LVP (C57BL/6 hearts; [6]): 62 and 40 and 56
Max + d (C57BL/6 hearts; [6]): 48 and 50 and 43
Max − d (C57BL/6 hearts; [6]): 52 and 48 and 47
RT90 (C57BL/6 hearts; [6]): 80 and 75 and 65
TPP (C57BL/6 hearts; [6]): 72 and 80 and 70
dP40 (C57BL/6 hearts; [6]): 1400 and 1000 and 1200
−dP/dt (C57BL/6 hearts; [6]): 950 and 1250
DR (C57BL/6 hearts; [7]): 1.153
HR (C57BL/6 hearts; [7]): 318.3333
LVP (C57BL/6 hearts; [7]): 52.67
Max + d (C57BL/6 hearts; [7]): 47
Max − d (C57BL/6 hearts; [7]): 49
RT90 (C57BL/6 hearts; [7]): 73.33
TPP (C57BL/6 hearts; [7]): 74
−dP/dt (C57BL/6 hearts; [7]): 1233.333
